41 sequences from the nanobody polyreactivity screen of Harvey et al. (2022) can be followed below.

The series is described as follows: yeast display, Sf9 membrane polyspecificity reagent, FACS + sequencing; frameworks hold sequencing errors. In short, it runs like this:
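Using colony PCR, genes from sorted yeast display clones were amplified, then sequenced on MiSeq at 2 × 250 and filtered by CDR length. The clones had been stained with 10% biotinylated, detergent-solubilized Sf9 membrane reagent for 1 hour at 4 °C and sorted by FACS into low and high (top ~1%) gates on anti-HA and streptavidin fluorescence. Polyreactivity labels come from the gate of origin.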
As for “QVQLVESGGGLVQAGGSLRLICAASGIIFLYYAMGWYRQAPGKEWELVAAISSGVSTYYADSVKGRFTISRDNAKNTVYLQLNSLKPEDTAVYYCNADYYQLNSGMYYWGQGTQVTVSS”, the “polyreactivity (PSR sort gate)” value is reported as “low polyreactivity”.

For the sequence “QVQLVESGGGLVQAGGSLRLICAASGIIFYGYGMGWYRQARGKERELVAAITRSGGRTYYADSVKGRFTISRDNAKNTVYLQMNSLKPEDTAVYYCAAKRRTGGNGYWGQGTQVTVSS”, the “polyreactivity (PSR sort gate)” value was “high polyreactivity”. “QVQLVESGGGLVQAGGSLRLICAASGIIFYVNAMGWYRQAPGKERELVAAITRGGTTYYADSVKGRFTISRDNAKNTVYLQMNSLKPEDTAVYYCAARLRYTTGIYYYWGQGTQVTVSS”: the “polyreactivity (PSR sort gate)” value is “high polyreactivity”.

Regarding “QVQLVESGGGLVQAGGSLRLICAASGIIFYVYAMGWYRQAPGKERELVAAISFRGTSTYADSVKGRFTISRDNAKNTVYLQLNSLKPEDTAVYYCAVTGFDVLWPSLGGVLDYWGQGTQVTVSS”, the “polyreactivity (PSR sort gate)” value was “low polyreactivity”.

On to “QVQLVESGGGLVQAGGSLRLICAASGITFYRNARGWYRQAPGKERELVAAITSGTSTYYADSVKGRFTISRDNAKFTVYLQMISLKPEDTAVYYCAKRTPPGYYGFDYWGQGTQVNVSS”, for which the “polyreactivity (PSR sort gate)” value is given as “low polyreactivity”. Regarding “QVQLVESGGGLVQAGGSLRLICAASGLIFSYYAMGWYRQAPGKERELVAAISRGGSTNYADSVKGRFTISRDNAKNTVYLQMNSLKPEDTAVYYCAARFVVRRDYGYWGQGTQVTVSS”, the “polyreactivity (PSR sort gate)” value is on record as “high polyreactivity”. On to “QVQLVESGGGLVQAGGSLRLICAASGLIFVYYAMGWYRQAPGKERELVAAIDWSSTRTYYADSVKGRFTISRDNATNTVYLQMNSLKPEDTAVYYCAAESRYLSWFDYWGQGTQVTVSS”, for which the “polyreactivity (PSR sort gate)” value is “high polyreactivity”.

In the case of “QVQLVESGGGLVQAGGSLRLICAASGLTFKQYVMGWYRQAPGKERELVAAIHNGTSTYYADSVKGRFTISRDNAKNTVYLQMNSLKPEDTAVYYCAADGLGFNTYDYWGQGTQVTVSS”, the “polyreactivity (PSR sort gate)” value is “low polyreactivity”. “QVQLVESGGGLVQAGGSLRLICAASGLTFTYYAMGWYRQAPGKERELVATISSSGRTNYADSVKGRFTISRDNAKNTVYLQMNSLKPEDTAVYYCAATLYHYWYADFDYWGQGTQVTVSS”: the “polyreactivity (PSR sort gate)” value is “high polyreactivity”.

For “QVQLVESGGGLVQAGGSLRLICAASGLTYFSYAMGWYRQAPGKQREFVAAITRRGGRTYYADSVKGRFTISRDNAKYTVYLQMNSLKPEDTAVYYCNAVPVLISVYRMEYWGQGTQVTVSS”, the “polyreactivity (PSR sort gate)” value is “high polyreactivity”. The same measure for “QVQLVESGGGLVQAGGSLRLICAASGNIFGAYAMGWNIQAPGKERELVAVIRFDDGSTYYADSVKGRFTISRDNAKNTVYLQMNSLKPEDTAVDFCAVRLYLEMDYWGQGTQVTVSA”: “high polyreactivity”; for “QVQLVESGGGLVQAGGSLRLICAASGNTFRYYAMGWYRQAPGKERELDAAINSRGGTTSYADSVKGRFTISRDNAKNTVYLQMNSLKPEDTAVYYCAARSYYRGTFYPYYYWGQGTQVTVSS”: “high polyreactivity”; for “QVQLVESGGGLVQAGGSLRLICAASGNTIIRYAIGWFRQAPGKERELVAAISYSGGRTYYADSVKGRFTISRDNAKNTVYLQMNSVKPEDTAVYYCNAASRYGGDYWGQGTQVTVSS”: “low polyreactivity”. The entry for “QVQLVESGGGLVQAGGSLRLICAASGRIFGANAMGWYIQAPGKERELVAAISRTGGSKYYADSVKGRFTISRDNAKNTVYLQMNSLKPEDTAVYYCNAVYRYAHPMEYWGQGTQVTVSS” is “high polyreactivity”. As to “QVQLVESGGGLVQAGGSLRLICAASGRIFGGNAMGWYRQAPGKERELVAPISRSGGSTYYADSVKVRFTISLDNAKNTVYLQMNSLIPEDTAVYYCAAVRRPGTGKYTEYDYWGQGTQVTVSS”, the “polyreactivity (PSR sort gate)” value is “high polyreactivity”. As to “QVQLVESGGGLVQAGGSLRLICAASGRIFGLYAMGWYRQAPGKERELVAGITYSGGTTYYADSVKGRFPISRDNAKNTVYLQMNSLKPEDTAVYYCNKRWYYQYGQSHVRLYDYWGQGTQVTVSS”, the “polyreactivity (PSR sort gate)” value was “high polyreactivity”. Take “QVQLVESGGGLVQAGGSLRLICAASGRIFGYYVMGWSRQSPGKERQLVAAIRSSADSTYYADSVKGRFTISRDNAKNTVYLQMNSLKPEDTAVYYCAAQSPAYYTKSYWGQGTQVTVSS”: the “polyreactivity (PSR sort gate)” value is listed as “low polyreactivity”. The same measure for “QVQLVESGGGLVQAGGSLRLICAASGRIFHYYAMGWYRQAPGKERELVAAIRWSGGDTYYADSVKGRFTISRDNAKNTVYLQMNSLKPEDTAVYYCAAYDHVYEYDYWGQGTQVTVSS”: “low polyreactivity”. In the case of “QVQLVESGGGLVQAGGSLRLICAASGRIFITNTMGWYRQAPGKETELVAAISRTGGSTYYADSVKGRFTISRDNAKNTVYLQMNSLKPEDTAVYFCNAVVRGYAQGAGFDYWGQGTQVTVSS”, the “polyreactivity (PSR sort gate)” value is recorded as “high polyreactivity”. On to “QVQLVESGGGLVQAGGSLRLICAASGRIFKWYAMGWYRQAPGKERELVATITWSGGSTYYADSVKGRFTISRDNAKNTVYLQMNSLKPEDTAVYNCNADTWLALPGFDYWGQGTQVTVSS”, for which the “polyreactivity (PSR sort gate)” value was “high polyreactivity”.

As to “QVQLVESGGGLVQAGGSLRLICAASGRIFSKNAMGWYRQAPGKEREFVAAISRIGGRTYYADSVKGRFTISRDNAKNTVYFQMNSLKPEDTAVYYCATVHYGYTTSYDYWGQGTQVTVSS”, the “polyreactivity (PSR sort gate)” value is listed as “high polyreactivity”. Consider “QVQLVESGGGLVQAGGSLRLICAASGRIFWSNTMGWYRQAPGKERELVAAISGRGGSTYYADSVKGRFTISRDNAKNTVYLQMNSLKPEDTAVYYCAAKPTRSRKIYEYWGQGTQVTVSS”, for which the “polyreactivity (PSR sort gate)” value is reported as “low polyreactivity”.

Consider “QVQLVESGGGLVQAGGSLRLICAASGRIFYGYAMGWSRQAPGKERELVAAIRWSGGRTYYADSVKGRFTISRDNAKNTVYLQMNSLKPEATAVYYCAADYGYRSYVRFLSANYDYWGKGTQVTVSS”, for which the “polyreactivity (PSR sort gate)” value was “high polyreactivity”.

Turning to “QVQLVESGGGLVQAGGSLRLICAASGRIFYSYSMGWSRPAPGKERELVATITTSGKTYYADSVNGRFTISRDNAKNTVYLQMNSLIPDDTAVYYCNAGWDLVYGYYPRRKIFDYWGQGTQVTVSS”, the “polyreactivity (PSR sort gate)” value is listed as “high polyreactivity”.

Turning to “QVQLVESGGGLVQAGGSLRLICAASGRILYYNVMVWYRQAPGKEREMVASITSVVSTNYADSVKGRFTISRDNAKNTVYLQMNSLKPEDTAVYYCAARYFSGSYSDQIWGMDYWGQGTQLTVSS”, the “polyreactivity (PSR sort gate)” value is recorded as “high polyreactivity”.

Turning to “QVQLVESGGGLVQAGGSLRLICAASGRTFADYAMGWYRQAPGKERELVAAISWRGGSTYYADSVKGRFTISRDNAKITVYLQMNSLKPEDTAVYYSNKAYPAHYDYLGQGTQVTVSS”, the “polyreactivity (PSR sort gate)” value is “low polyreactivity”.

On to “QVQLVESGGGLVQAGGSLRLICAASGRTFAPYAMGWYRQAPGKEMQLVAAISSGGGNTYYADSVKGRFTISRDNAKNTVYLQMNSLKPEDTAVYYCNAAQRRGGLGYWGQGTQVTVSS”, for which the “polyreactivity (PSR sort gate)” value is “high polyreactivity”. The entry for “QVQLVESGGGLVQAGGSLRLICAASGRTFGGNAMGWYRQAPGKERELVAAISSGGSTNYADSVNGRFTISRDNAKNTVYFLMNSLKPEDTAVYYCAADSKIGSFDSWGQGTQVTVSS” is “low polyreactivity”; for “QVQLVESGGGLVQAGGSLRLICAASGRTFGRNAMGWYRQAPGKERELVAAISYGGGSTYYADSVKGRFTISRDNAKNTVYLQMNSLKPEDTPGSAAAARYAYGMWGQGTQVTVSS” it is “low polyreactivity”; for “QVQLVESGGGLVQAGGSLRLICAASGRTFGVYAMGWYRQAPGKERELVATIRTTGSTNYADSVKGRYTISRDNAKITVYLEMNSLKTEDTAVYYCAARQRQSKYYPYTTFTYDYWGQGTQVSVSS” it is “high polyreactivity”. For the sequence “QVQLVESGGGLVQAGGSLRLICAASGRTFKYKAMGWSRQAPGKERELVAVISRGGSTYADSVKGRFTISRDNAKNTVYLQMNSLKAEDTAVYYCAVGRNSRQASERYGWYKYDYWGQGTQVTVSS”, the “polyreactivity (PSR sort gate)” value was “high polyreactivity”. On to “QVQLVESGGGLVQAGGSLRLICAASGRTFPYNAMGWSRQAPGKERELVARITSGGRTYYADSVKGRFTISRDNAKNTVYLQMNSLKPEDPAVYYCAAETLRYYWKSYDWGQGTQVTVSA”, for which the “polyreactivity (PSR sort gate)” value is “high polyreactivity”. Take “QVQLVESGGGLVQAGGSLRLICAASGRTFRGDAMGWYRPAPGKERELVAAITKSGGSTYYADSVKGRFTISRDNAKNTVYLQMNSLKPEDTAVYYCAKLRSSRDYDYWGQVTQVTVSS”: the “polyreactivity (PSR sort gate)” value was “high polyreactivity”. The entry for “QVQLVESGGGLVQAGGSLRLICAASGRTFRHNAMGWYRQAPGKERELVAAISSSGTNTHYADSVKGRFTISRDNAQNTVYLQMNSLKPEDTAVYYCAADRWGARRKQYHENGYWGQGTQVTVSS” is “high polyreactivity”. Turning to “QVQLVESGGGLVQAGGSLRLICAASGRTFRKYAMGWYRQAPGKERELVAAINRGGTTKYADSVKGRFTISRDNAKNTVYLQMNSLKPEDTAVYYCNAAYGGVFFYAYDYWGQGTQVTVSS”, the “polyreactivity (PSR sort gate)” value is recorded as “low polyreactivity”. Take “QVQLVESGGGLVQAGGSLRLICAASGRTFSTYAMGWYRQAPGKERELVAAISSGGGRTYYADSVKGRFTISRDNAKNTVYLQMNSLKPEDTAVYYCAADRYVRSRRSYEYWGQGTQVTVSS”: the “polyreactivity (PSR sort gate)” value was “low polyreactivity”.

Turning to “QVQLVESGGGLVQAGGSLRLICAASGRTFSYYAIAWYRPAPGKERELVAAINWSGTRTYYADSVTGRCTISRDNAKNTVYLQMNSLNPEDTAVYYCARRWVGYDYWGQGTQVTVSS”, the “polyreactivity (PSR sort gate)” value is recorded as “high polyreactivity”. As to “QVQLVESGGGLVQAGGSLRLICAASGRTFTLNVMGWYRQAPGKETEFVATITWGGGRTYYADSVKGRFTISRDNAKNTVYLQMNSLKPVDTAVYYCAGQLAKTIRGRGYNSWGQGTQVTVSS”, the “polyreactivity (PSR sort gate)” value is listed as “low polyreactivity”. Regarding “QVQLVESGGGLVQAGGSLRLICAASGRTFVYYAMGWYRQAPGKERELVAAITRSGGRTYYEDSVKGSFTISRDNAKNNVYLQMNSLKPEDTAVYYCAARYWDNPFWFDYWGQGTIVTVSS”, the “polyreactivity (PSR sort gate)” value is on record as “high polyreactivity”.

Regarding “QVQLVESGGGLVQAGGSLRLICAASGRTLAPNAMGWYRQAPGKERELVATITRGGTTNYADSVKGRFTISRDNAKNTVYLQMNSLKPEDTAVYYCAKAHYLGYYQRYDYWGQGTQVTVSS”, the “polyreactivity (PSR sort gate)” value is recorded as “low polyreactivity”. As for “QVQLVESGGGLVQAGGSLRLICAASGRTLDYYAMGWYRQAPGKERELVGAISQSDDSTYYADSVKGRFTISRDNSKNTVYLQMNILKPEDTAVNYCAAEIELFSPDGVGIYWYVYWGQGTQVYVSS”, the “polyreactivity (PSR sort gate)” value was “high polyreactivity”.
